Data taken from patent CN114652853A (JIANGSU ZHEREI MEDICINE CO LTD; SHANGHAI TENGDI MEDICINE CO …, dated 2022).
Each block holds one binder with its values, some of them ahead of it.

Molecular target: T1, 人源IL-4R (human IL-4R), overexpressed on LN229, U251 and HEK293 cells (human, UniProt P24394 26-825)
T1 sequence (looked up): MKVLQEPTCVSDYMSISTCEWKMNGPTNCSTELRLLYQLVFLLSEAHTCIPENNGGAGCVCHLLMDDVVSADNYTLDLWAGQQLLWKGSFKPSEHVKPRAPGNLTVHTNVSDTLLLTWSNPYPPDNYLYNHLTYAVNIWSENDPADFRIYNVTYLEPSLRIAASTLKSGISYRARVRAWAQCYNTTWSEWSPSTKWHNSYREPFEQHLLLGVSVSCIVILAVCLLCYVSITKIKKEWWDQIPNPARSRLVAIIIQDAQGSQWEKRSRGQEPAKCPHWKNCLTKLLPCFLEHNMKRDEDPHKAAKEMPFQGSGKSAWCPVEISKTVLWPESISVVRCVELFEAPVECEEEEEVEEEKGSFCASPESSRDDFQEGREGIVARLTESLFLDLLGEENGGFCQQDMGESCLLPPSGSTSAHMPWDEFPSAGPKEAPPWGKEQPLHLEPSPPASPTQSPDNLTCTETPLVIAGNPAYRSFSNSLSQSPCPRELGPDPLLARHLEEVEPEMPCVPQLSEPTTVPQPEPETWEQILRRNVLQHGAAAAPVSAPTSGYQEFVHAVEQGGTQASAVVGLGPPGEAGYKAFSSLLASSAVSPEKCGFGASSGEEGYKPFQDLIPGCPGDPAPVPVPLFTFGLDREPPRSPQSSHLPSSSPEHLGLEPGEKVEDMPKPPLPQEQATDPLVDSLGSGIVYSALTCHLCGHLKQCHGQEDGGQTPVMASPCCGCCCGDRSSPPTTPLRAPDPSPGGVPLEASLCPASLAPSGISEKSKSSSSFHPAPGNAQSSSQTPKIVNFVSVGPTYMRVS
Assay: cell-based or functional assay

IC50, 体外毒性 in HEK293-IL4R细胞: 0.458 nM
B1: 25G7-C1, DAR=5.86 (antibody, human IgG1, kappa, V domains shown)
VH: EVQLVESGGGLVQPGGSLRLSCAASGFTFSDYGMHWVRQAPGKGLEWVAFISSGSSIIYYADIVKGRSTISRDNAKNTLYLQMNSLRAEDTAVYYCTRGNKRGFFDYWGQGTLVTVSS
VL: EIVLTQSPATLSLSPGERATLSCRASSSVPYMYWYQQKPGQAPRLLIYLTSNLASGIPARFSGSGSGTDFTLTISSLEPEDFAVYYCQQWRAYPPMLTFGGGTKVEIKR
modifications: 依喜替康类似物 (exatecan analogue) joined through a linker; measured DAR 5.86; attachment residues not stated

IC50, 体外毒性 in HEK293-IL4R细胞: 3.29 nM
B2: 25G7-C1, DAR=3.52 (antibody, human IgG1, kappa, V domains shown)
VH: B1 VH
VL: B1 VL
modifications: 依喜替康类似物 (exatecan analogue) joined through a linker; measured DAR 3.52; attachment residues not stated
